This is an account of results in PMC10853454, “ADAM19 cleaves the PTH receptor and associates with brachydactyly type E” (Life Science Alliance, 2024).

The test system of one test is ADAM19 / EYFP-PTHR1. The experiment in a line: ADAM19 shedding assay, EYFP-PTHR1 supernatant/cell fluorescence ratio. Type of test: cell-based, human. The settings on record: HEK-293T cells, EYFP-PTHR1 + WT ADAM19; 100 μM ilomastat in DMEM from 1 h after transfection, 48 h (method: 47 h); EYFP fluorescence 500/539 nm; n = 5, t test. The procedure: For fluorescence-based shedding experiments, HEK-293T cells were seeded in six-well cell culture plates at a density of 500,000 cells per well 24 h prior to transfection. Next day, cells in each well were transfected with 0.4 μg EYFP-PTHR1 plasmid and 0.8 μg ADAM19 or empty pcDNA3 vector plasmids. For the experiments in which the different ADAM:EYFP-PTHR1 ratios were examined, cells were transfected with a constant 0.3 μg EYFP-PTHR1 construct alongside with varying amounts of ADAM19 and pcDNA constructs to maintain the total DNA amount of 1.2 μg. 1 h after transfection, cells were supplemented with DMEM or with 100 μM ilomastat dissolved in DMEM. […] 96-well plate fluorescence measurements were performed using a Biotek Neo2 multi-well plate reader. EYFP intensity was measured using high lamp power settings at an excitation wavelength of 500/18 nm. Fluorescence was detected using a monochromator set to 539/20 nm for emission and a photomultiplier tube set to 120 V gain. To calculate and quantify the ADAM19-mediated shedding of PTHR1 N-terminus, background fluorescence value obtained from pure DMEM was subtracted from fluorescence values obtained from cell culture medium (Fsupernatant) and cell suspensions (Fcell), and then the ratio of background-corrected fluorescence values was calculated: Ratio = Fsupernatant/Fcell. […]

Another test relates to ADAM19 cleavage of PTHR1. Briefly: PTHR1 cleavage by ADAM19, Western blot after PNGase F de-glycosylation. Type of test: cell-based, human. The settings on record: HEK-293T (text: HEK 293) cells, unmodified PTHR1 + ADAM19, 10 μM batimastat, inhibitors added 24 h, lysis 36 h after transfection, Western blot anti PTHR1 573–593. The procedure:
HEK-293T cells were seeded onto 12-well plates and transfected with plasmids encoding human P[…], ADAM-19 using TransIT-293 (Mirus) according to the manufacturer's instructions. Protease inhibitors were added to the medium 24 h after transfection as indicated. 36 h after transfection, cells were washed with PBS and lysed in ice-cold radioimmune precipitation assay buffer (50 mM Tris-HCl, pH 7.5, 150 mM NaCl, 1% [wt/vol] Nonidet P-40, 0.1% [wt/vol] SDS, 0.5% [wt/vol] sodium deoxycholate, 5 mM EDTA) supplemented with a mix of protease inhibitors (5 μM leupeptin, 5 μM pepstatin-A, 1 mM 4-(2-aminoethyl) benzenesulfonyl fluoride). The lysates were cleared by centrifugation at 20,000g for 30 min at 4°C. For deglycosylation, lysates were incubated with 40 mM dethiothreitol and 0.5% SDS for 90 min at 25°C. Thereafter, 1 mg/ml PNGase F was added, and samples were incubated for 16 h at 4°C. Proteins were separated by 8% or 10% SDS-PAGE and transferred onto PVDF membranes ([…], #T830.1; Carl Roth). The membranes were blocked in 5% skimmed milk powder (Sigma-Aldrich) or in casein solution (Sigma-Aldrich) for 1 h at RT. […] Proteins were detected either after short incubation in Immobilon Western ECL substrate (#WBKLS0500; Millipore) on an Odyssey FC device (Li-cor Biosciences) or on an Odyssey CLx scanner (Li-cor Biosciences). […]
A general note: In western blotting, separated proteins are transferred to a membrane and probed.

The test system of test [1] is PTHR1 (cAMP accumulation). Briefly: FRET-based cAMP accumulation assay (Epac-S-H187) in U2OS cells. Type of test: cell-based, human. To be noted: 500 pM ligand. The procedure: For cAMP accumulation assays, U2OS cells were seeded on Poly-D- Lysine-coated 24 mm glass cover slips in 6-well plates at a density of 1.0 × 10^6 cells/well and transfected with 1–2.4 μg cDNA per cover slip using Effectene (QIAGEN) or NEON electroporation (Thermo Fisher Scientific) according to the manufacturer’s protocol. cDNA was transfected with the EPAC-S-H187 FRET-biosensor ([Klarenbeek et al, 2015]), PTHR1-wt and ADAM19 at a ratio of 1:1:2. Fluorescence microscopy experiments were performed 48 h after transfection. For single-cell FRET imaging experiments, transfected cells on coverslips were transferred to imaging chambers (Attoflur; Thermo Fisher Scientific) and washed once and maintained in FRET imaging buffer (144 mM NaCl, 5.4 mM KCl, 2 mM CaCl2 [Carl Roth GmbH & Co. KG], 1 mM MgCl 2 [AppliChem], 10 mM HEPES [Sigma-Aldrich Chemie GmbH]; pH = 7.3). For the experiment, the cells remained at RT throughout the experiment. […]
After selecting suitable cells at the microscope, regions of interest (single cells and a cell-free background region) were chosen and recording parameters were set using the Visiview 4.0 imaging software (Visitron Systems). Every 5 s, images of the donor and acceptor emission channels were recorded following donor excitation at 436 nm for 100 ms. […] After every experiment, direct YFP excitation at 505 nm (emission: 560 nm) was recorded as a unit of measurement for the expression level of the sensor.
For data analysis, raw emission intensities from CFP and YFP channels were exported and corrected for background (by subtracting the emission intensities of a cell free region) and bleed-through of the donor fluorescence into the acceptor channel ([Borner et al, 2011]). FRET ratios (CFP/FRET in %) were calculated and normalized to baseline average of 10 data points before ligand addition, set to 0% and Forskolin/3-iso-butyl-1 methylxanthine (max. cAMP response, set to 100%). […]
(cAMP levels reflect the balance of adenylyl cyclase and phosphodiesterase activity.)

In a further test the test system is PTHR1 (Gs activation). Briefly: BRET-based Gs activation by PTHR1. Type of test: cell-based, human. To be noted: HEK-293T cells with ADAM19; Gs BRET sensor, 37°C; three independent experiments in duplicates. How it is done:
(§1) U2OS, Saos2 and HEK-293T cells were transfected with Gs or Gq protein BRET biosensors ([Che et al, 2010]), PTHR1 and ADAM19 at a ratio of 1:1:2. For β-arrestin2 BRET recruitment assay, PTHR1-Nanoluc was used with β-arrestin2-cpVenus and ADAM19 at a ratio of 1:1:2 ([Nemec et al, 2022]). Combinations were transfected with Effectene (QIAGEN) or NEON electroporation (Thermo Fisher Scientific) according to the manufacturer’s protocol with a total of 1–2.4 μg of cDNA. After 24 h cells were transferred into a PDL-precoated a white-wall, white-bottomed 96-well microtiter plate, at a density of 60,000 cells/well. 24 h after the reseeding, the medium was removed, and cells were washed once with PBS with 0.1% BSA and incubated with 90 μl of a 1:1,000 (vol:vol) stock solution of furimazine in PBS buffer. 5 min later, basal reads were recorded for 4 min and subsequently, 10 μl of 10-fold ligand solution or FRET buffer was applied to each well and the stimulated reads were further recorded. Measurements were performed at 37°C using a Synergy Neo2 Plate Reader with the NanoBRET filter set, integration time per data point was set to 0.3 s and gain to 110/140. Cells were excited at 510/20 nm and fluorescence emission was recorded at 560/20 nm for quantification of expression level ([Nemec et al, 2022]).

Another test concerns PTHR1 (Gq activation). Briefly: BRET-based Gq activation by PTHR1. Type of test: cell-based, human. How it is done: as §1
For orientation: In BRET a luciferase serves as donor, and the signal depends on an acceptor being close.

Test [2] deals with PTHR1 (β-arrestin2 recruitment). The experiment in a line: BRET β-arrestin2 recruitment to PTHR1 in U2OS cells. Type of test: cell-based, human. How it is done:
as §1

The test system is the same in test [3]. The experiment in a line: BRET β-arrestin2 recruitment to PTHR1 in SaOS cells. Type of test: cell-based, human. The settings on record: SaOS (Saos2) cells; PTHR1-Nanoluc + β-arrestin2-cpVenus BRET, 37°C. How it is done: as §1
For the next test, the system named is PTH1R. The settings on record: ref Hattersley et al, 2016; cited from earlier work.

For `CNC(=O)[C@H](Cc1c[nH]c2ccccc12)NC(=O)[C@@H](CC(=O)NO)CC(C)C` [Ilomastat (GM6001)], in the test on ADAM19 / EYFP-PTHR1, the “inhibition of PTHR1 cleavage by ADAM19” value was “PTHR1 cleavage by ADAM19 was inhibited”.

As for `CNC(=O)[C@H](Cc1ccccc1)NC(=O)[C@H](CC(C)C)[C@H](CSc1cccs1)C(=O)NO` [batimastat], in the test with ADAM19 cleavage of PTHR1, the “PTHR1 species detected with ADAM19 co-expression” value is listed as “only the 60 kD species of PTHR1 were detected”.

Regarding “PTH1-34: PTHR1 ligand, BACHEM #4033364 (SVSEIQLMHNLGKHLNSMERVEWLRKKLQDVHNF; Parathyroid hormone; UniProt P01270 32-65, looked up, fragment)”, in test [1] (U2OS cells with and without ADAM19, 0% = baseline, 100% = 10 μM Forskolin + 100 μM 3-iso-butyl-1 methylxanthine, "in both cases"), the “increase of FRET ratio (CFP/FRET), average” value was 70–80%. For the same molecule, in test [1] (U2OS cells, PTH1R + Epac-S-H187, alone and with ADAM19, single-cell FRET, RT, pH 7.3), the cAMP response entry is “an increase in cAMP was detected”. Also, the “difference in cAMP response with vs without ADAM19” value in test [1] (U2OS cells, PTH1-34 n = 96 cells on 5 days (Welch t test), PTHrP n = 76 cells on 2 days (Mann-Whitney)) is “no significant differences”.

B1: PTH: parathyroid hormone; PTHR1 agonist, form used in BRET assays not specified (peptide, UniProt P01270 32-115, looked up)
Parathyroid hormone: SVSEIQLMHNLGKHLNSMERVEWLRKKLQDVHNFVALGAPLAPRDAGSQRPRKKEDNVLVESHEKSLGEADKADVNVLTKAKSQ
modifications: Parathyroid hormone
notes: parathyroid hormone; PTHR1 agonist, form used in BRET assays not specified
Turning to B1, the “Gs-activation for WT PTHR1 compared to cleavage-protected PTHR1-56-63A mutant” value in the test on PTHR1 (Gs activation) was “increased Gs-activation”. In addition, the “Top of the curve (maximum efficacy), Gq, WT vs 56–63A mutant PTHR1” value with PTHR1 (Gq activation) (HEK293T with ADAM19, three-parameter non-linear fit, extra sum of squares F test (<0.0001), Fig 6B-E legend, panels not distinguished) is “significantly different”. Further, the “Gq-activation for WT PTHR1 compared to cleavage-protected PTHR1-56-63A mutant” value in the test with PTHR1 (Gq activation) (HEK-293T cells with ADAM19, Gq BRET sensor, 37°C, three independent experiments in duplicates) was “decreased Gq-activation”. The “β-arrestin2 recruitment to PTHR1, presence vs absence of ADAM19” value was “significantly increased β-arrestin translocation to the PTHR1 when ADAM19 was present” in test [2] (PTHR1-Nanoluc + β-arrestin2-cpVenus BRET, 37°C, four experiments in quadruple) and “significantly increased β-arrestin translocation to the PTHR1 when ADAM19 was present” in test [3]. Also, the “Top of the curve (maximum efficacy), β-arrestin2 recruitment, with vs without ADAM19” value in test [2] (three-parameter non-linear fit, extra sum of squares F test (<0.0001)) was “significantly different”. The “agonist type at PTH1R” value with PTH1R is given as “full agonists”.
